From the supplement of paper PMC7877785 come the findings set out here.

The nature of the series: self-splicing fitness, log relative to wild type (ln ratio); higher = more splicing; Tetrahymena group I intron in knt gene, E. coli kanamycin selection, DiMSum; sequences stand for … in CUCUCU…GGAGGGAAAAGUUAUCAGGCAUGCACCUGGUAGCUAGUCUUUAAACCAAUAGAUUGCAUCGGUUUAAAAGGCAAGACCGUCAAAUUGCGGGAAAGGGGUCAACAGCCGUUCAGUACCAAGUCUCAGGGGAAACUUUGAGAUGGCCUUGCAAAGGGUAUGGUAAUAAGCUGACGGACAUGGUCCUAACCACGCAGCCAAGUCCUAAGUCAACAGAUCUUCUGUUGAUAUGGAUGCAGUUCACAGACUAAAUGUCGGUCGGGGAAGAUGUAUUCUUCUCAUAAGAUAUAGUCGGACCUCUCCUUAAUGGGAGCUAGCGGAUGAAGUGAUGCAACACUGGAGCCGCUGGGAACUAAUUUGUAUGCGAAAGUAUAUUGAUUAGUUUUGGAGUACUCGUGGUCG
The method, boiled down:
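A randomised library covering all eight P1ex-region intron nucleotides was built with the intron in the knt kanamycin-resistance gene on pET-22b(+) and held in E. coli BL21(DE3). Cells were grown overnight at 37°C or 30°C on LB agar, with or without 25 μg/mL kanamycin, plus 100 μg/mL carbenicillin, 50 μM IPTG and 0.2% rhamnose, and pooled colonies were amplicon-sequenced on an Illumina HiSeq 2500. DiMSum fitness is the error-weighted combination of wild-type-normalised replicate fold changes, kanamycin versus none.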

± gives the uncertainty stated by the source.

For the sequence GCGUAGCAAUAUUACGGAGU, the “self-splicing fitness (ln)” value reads like this: (30 °C) -2.88 ± 0.16; (37 °C) -1.44 ± 0.14.
Taken in the same sequence, the figures for GCGUAGCAAUAUUACGGAUU were -1.59 ± 0.13 and -0.574 ± 0.15.
GCGUAGCAAUAUUACGGCCU: the “self-splicing fitness (ln)” value reads like this: (30 °C) -0.557 ± 0.16; (37 °C) -0.113 ± 0.25.
Taken in the same sequence, the figures for GCGUAGCAAUAUUACGUACU were -2.08 ± 0.15 and -0.552 ± 0.17.
For GCGUAGCAAUAUUACGUCCA, the “self-splicing fitness (ln)” value is, setting by setting: (30 °C) -1.49 ± 0.099; (37 °C) -0.365 ± 0.1.
GCGUAGCAAUAUUACGUCCC: the “self-splicing fitness (ln)” value (30 °C) is -0.245 ± 0.24.
GCGUAGCAAUAUUACGUGGG: the “self-splicing fitness (ln)” value is -3.84 ± 0.22 (30 °C) and -3.04 ± 0.24 (37 °C).
On to GCGUAGCAAUAUUACGUUAA, for which the “self-splicing fitness (ln)” value reads like this: (30 °C) -2.13 ± 0.23; (37 °C) -1.74 ± 0.2.
Taken in the same sequence, the figures for GCGUAGCAAUAUUACGUUUC were -4.29 ± 0.34 and -1.83 ± 0.22.
For GCGUAGCAAUAUUACGUUUU, in that order: -3.15 ± 0.14 and -1.8 ± 0.13.
For GCUAAGCAAUAUUACGAGGA, in that order: -1.73 ± 0.11 and -0.693 ± 0.12.
GCUAAGCAAUAUUACGCAAC: the “self-splicing fitness (ln)” value runs as follows: (30 °C) -2.35 ± 0.42; (37 °C) -0.352 ± 0.47.
With GCUAAGCAAUAUUACGCAUA, the “self-splicing fitness (ln)” value was -1.97 ± 0.11 (30 °C) and -1.5 ± 0.093 (37 °C).
Consider GCUAAGCAAUAUUACGCCUG, for which the “self-splicing fitness (ln)” value by setting is: (30 °C) -0.523 ± 0.16; (37 °C) -1.55 ± 0.22.
In the case of GCUAAGCAAUAUUACGGAUU, the “self-splicing fitness (ln)” value was -1.14 ± 0.068 (30 °C) and -1.12 ± 0.092 (37 °C).
Taken in the same sequence, the figures for GCUAAGCAAUAUUACGGGCA were -1.52 ± 0.098 and -1.11 ± 0.13.
For GCUAAGCAAUAUUACGGUAG, in that order: -3.12 ± 0.21 and -3.35 ± 0.3.
Turning to GCUAAGCAAUAUUACGGUCU, the “self-splicing fitness (ln)” value was -0.772 ± 0.083 (30 °C) and -1.06 ± 0.085 (37 °C).
For GCUAAGCAAUAUUACGUAAU, in that order: -0.775 ± 0.088 and -0.189 ± 0.11.
Taken in the same sequence, the figures for GCUAAGCAAUAUUACGUCGA were -1.21 ± 0.11 and -0.619 ± 0.15.
Taken in the same sequence, the figures for GCUAAGCAAUAUUACGUUUA were -2.9 ± 0.24 and -1.69 ± 0.21.
Take GCUAAGCAAUAUUACGUUUG: the “self-splicing fitness (ln)” value is -2.16 ± 0.09 (30 °C) and -0.954 ± 0.12 (37 °C).
Take GCUCAGCAAUAUUACGAACA: the “self-splicing fitness (ln)” value is -0.688 ± 0.088 (30 °C) and -0.676 ± 0.1 (37 °C).
For GCUCAGCAAUAUUACGAAGG, in that order: -0.909 ± 0.073 and -0.29 ± 0.1.
Turning to GCUCAGCAAUAUUACGAAGU, the “self-splicing fitness (ln)” value reads like this: (30 °C) -1.63 ± 0.16; (37 °C) -0.416 ± 0.15.
For GCUCAGCAAUAUUACGAAUA, in that order: -1.02 ± 0.066 and -0.439 ± 0.072.
For GCUCAGCAAUAUUACGACUA, in that order: -0.565 ± 0.17 and -0.247 ± 0.18.
For GCUCAGCAAUAUUACGACUU, in that order: 0.064 ± 0.085 and -0.0421 ± 0.078.
Regarding GCUCAGCAAUAUUACGAUAA, the “self-splicing fitness (ln)” value is -0.805 ± 0.092 (30 °C) and -0.579 ± 0.11 (37 °C).
For GCUCAGCAAUAUUACGAUGA, in that order: -2.09 ± 0.2 and -2.26 ± 0.31.
For GCUCAGCAAUAUUACGCACA, in that order: -1.05 ± 0.1 and 0.0263 ± 0.11.
Consider GCUCAGCAAUAUUACGCACC, for which the “self-splicing fitness (ln)” value was -1.94 ± 0.23 (30 °C) and 0.598 ± 0.24 (37 °C).
Consider GCUCAGCAAUAUUACGCCAA, for which the “self-splicing fitness (ln)” value (30 °C) was -1.52 ± 0.42.
Turning to GCUCAGCAAUAUUACGCCUU, the “self-splicing fitness (ln)” value was determined as 0.0207 ± 0.11 (30 °C) and 0.141 ± 0.14 (37 °C).
For GCUCAGCAAUAUUACGCGAU, in that order: -2.55 ± 0.15 and -1.51 ± 0.14.
Taken in the same sequence, the figures for GCUCAGCAAUAUUACGCGGG were -3.41 ± 0.2 and -2.78 ± 0.2.
Turning to GCUCAGCAAUAUUACGCUCU, the “self-splicing fitness (ln)” value was -1.09 ± 0.082 (30 °C) and 0.39 ± 0.12 (37 °C).
In the case of GCUCAGCAAUAUUACGGGAA, the “self-splicing fitness (ln)” value runs as follows: (30 °C) -0.173 ± 0.099; (37 °C) 0.252 ± 0.16.
Taken in the same sequence, the figures for GCUCAGCAAUAUUACGGGAG were -2.46 ± 0.12 and -1.22 ± 0.11.
For GCUCAGCAAUAUUACGGUAG, in that order: -2.79 ± 0.26 and -1.89 ± 0.21.
Consider GCUCAGCAAUAUUACGGUGU, for which the “self-splicing fitness (ln)” value by setting is: (30 °C) -1.3 ± 0.062; (37 °C) 0.0463 ± 0.076.
For GCUCAGCAAUAUUACGUAUG, in that order: -2.44 ± 0.076 and -1.62 ± 0.091.
For GCUCAGCAAUAUUACGUAUU, in that order: -0.945 ± 0.053 and -0.23 ± 0.068.
For GCUCAGCAAUAUUACGUCUG, in that order: -2.36 ± 0.094 and -1.99 ± 0.11.
Regarding GCUCAGCAAUAUUACGUGUU, the “self-splicing fitness (ln)” value is, setting by setting: (30 °C) -0.538 ± 0.055; (37 °C) 0.555 ± 0.064.
Taken in the same sequence, the figures for GCUCAGCAAUAUUACGUUCC were -0.532 ± 0.062 and -0.507 ± 0.088.
As for GCUGAGCAAUAUUACGAAGG, the “self-splicing fitness (ln)” value (37 °C) is -1.52 ± 0.28.
Take GCUGAGCAAUAUUACGACAA: the “self-splicing fitness (ln)” value by setting is: (30 °C) -3.36 ± 0.45; (37 °C) -1.07 ± 0.39.
For GCUGAGCAAUAUUACGACCC, under “37 °C”, the “self-splicing fitness (ln)” value was -0.524 ± 0.39.
For GCUGAGCAAUAUUACGAGCA, the “self-splicing fitness (ln)” value runs as follows: (30 °C) -1.54 ± 0.14; (37 °C) -1.34 ± 0.15.
As for GCUGAGCAAUAUUACGAUCA, the “self-splicing fitness (ln)” value (37 °C) is -1.55 ± 0.35.
Regarding GCUGAGCAAUAUUACGAUUU, the “self-splicing fitness (ln)” value (30 °C) was -1.04 ± 0.08 and the “self-splicing fitness (ln)” value (37 °C) was -0.288 ± 0.096.
For GCUGAGCAAUAUUACGCCUC, in that order: -1.67 ± 0.42 and -1.53 ± 0.49.
For GCUGAGCAAUAUUACGGAUC, in that order: -1.43 ± 0.087 and -0.415 ± 0.12.
With GCUGAGCAAUAUUACGGUGG, the “self-splicing fitness (ln)” value reads like this: (30 °C) -3.32 ± 0.22; (37 °C) -3.95 ± 0.37.
For GCUGAGCAAUAUUACGUCUU, in that order: -1.91 ± 0.11 and -1.17 ± 0.15.
As for GCUGAGCAAUAUUACGUGGA, the “self-splicing fitness (ln)” value (30 °C) is -2.09 ± 0.19 and the “self-splicing fitness (ln)” value (37 °C) was -2.9 ± 0.31.
Taken in the same sequence, the figures for GCUGAGCAAUAUUACGUGUG were -3.29 ± 0.12 and -1.9 ± 0.1.
Regarding GCUGAGCAAUAUUACGUUUA, the “self-splicing fitness (ln)” value (30 °C) was -2.35 ± 0.24 and the “self-splicing fitness (ln)” value (37 °C) is -1.87 ± 0.25.
With GCUUAGCAAUAUUACGAAAA, the “self-splicing fitness (ln)” value was -1.6 ± 0.29 (30 °C) and -1.12 ± 0.28 (37 °C).
For GCUUAGCAAUAUUACGAAGU, in that order: -3.26 ± 0.21 and -2.27 ± 0.21.
On to GCUUAGCAAUAUUACGAAUC, for which the “self-splicing fitness (ln)” value reads like this: (30 °C) -0.244 ± 0.12; (37 °C) -0.0191 ± 0.15.
Take GCUUAGCAAUAUUACGAAUU: the “self-splicing fitness (ln)” value by setting is: (30 °C) -1.06 ± 0.076; (37 °C) -0.24 ± 0.097.
As for GCUUAGCAAUAUUACGACCU, the “self-splicing fitness (ln)” value by setting is: (30 °C) -0.423 ± 0.1; (37 °C) 0.203 ± 0.14.
Take GCUUAGCAAUAUUACGACUG: the “self-splicing fitness (ln)” value by setting is: (30 °C) -1.67 ± 0.1; (37 °C) -0.937 ± 0.11.
GCUUAGCAAUAUUACGAUAG: the “self-splicing fitness (ln)” value runs as follows: (30 °C) -2.11 ± 0.096; (37 °C) -0.174 ± 0.097.
Regarding GCUUAGCAAUAUUACGCCCG, the “self-splicing fitness (ln)” value is -1.04 ± 0.15 (30 °C) and -0.534 ± 0.2 (37 °C).
For GCUUAGCAAUAUUACGCCCU, the “self-splicing fitness (ln)” value runs as follows: (30 °C) -1.54 ± 0.11; (37 °C) -0.719 ± 0.13.
As for GCUUAGCAAUAUUACGCCGG, the “self-splicing fitness (ln)” value is, setting by setting: (30 °C) -1.97 ± 0.2; (37 °C) -1.44 ± 0.22.
Taken in the same sequence, the figures for GCUUAGCAAUAUUACGCGUG were -1.74 ± 0.1 and -1.64 ± 0.11.
Taken in the same sequence, the figures for GCUUAGCAAUAUUACGCUCC were -0.928 ± 0.15 and -1.09 ± 0.26.
Taken in the same sequence, the figures for GCUUAGCAAUAUUACGGACC were -1.17 ± 0.17 and 0.79 ± 0.22.
With GCUUAGCAAUAUUACGGCCU, the “self-splicing fitness (ln)” value is -1.05 ± 0.18 (30 °C) and -1.57 ± 0.25 (37 °C).
Turning to GCUUAGCAAUAUUACGGGAG, the “self-splicing fitness (ln)” value is, setting by setting: (30 °C) -2.42 ± 0.18; (37 °C) -1.29 ± 0.18.
As for GCUUAGCAAUAUUACGGGUA, the “self-splicing fitness (ln)” value is -1.43 ± 0.15 (30 °C) and -0.513 ± 0.12 (37 °C).
Regarding GCUUAGCAAUAUUACGUAGC, the “self-splicing fitness (ln)” value runs as follows: (30 °C) -3.12 ± 0.26; (37 °C) -1.75 ± 0.26.
